Experiment [1] concerns the target T1, human PILRA G78 on cells (human, UniProt Q9UKJ1 20-303). Put plainly: cell-based or functional assay.
Target sequence in this assay (Q9UKJ1 20-303 R78G limits assumed): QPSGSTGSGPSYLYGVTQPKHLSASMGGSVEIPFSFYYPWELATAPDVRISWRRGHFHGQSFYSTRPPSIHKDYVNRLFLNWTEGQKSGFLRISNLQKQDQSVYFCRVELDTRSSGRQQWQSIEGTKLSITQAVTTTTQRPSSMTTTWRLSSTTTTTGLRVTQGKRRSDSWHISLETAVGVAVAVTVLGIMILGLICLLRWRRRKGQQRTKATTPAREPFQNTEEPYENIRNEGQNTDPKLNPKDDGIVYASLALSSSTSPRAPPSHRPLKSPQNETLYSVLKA
In experiment [2] the target is T2, human PILRB extracellular domain (recombinant) (human, UniProt Q9UKJ0 20-191).
T2 construct: also called hPILRB
Put plainly: SPR, Biacore 8K, recombinant ECD. In general terms: SPR reads the build-up and loss of mass on a sensor chip optically.
Description: (§1) Antibodies were captured on Biacore™ Series S CM5 sensor chips immobilized with mouse anti-human Fab (human Fab capture kit from GE Healthcare) followed by injections of serial 3-fold dilutions of recombinant ECD reagents at a flow rate of 30 μL/min. Each sample was analyzed using a 3-minute association followed by a 10-minute dissociation. After each injection, the sensor chip was regenerated using a 5 0 mM glycine pH2.0 regeneration buffer. A 1:1 Languir model of simultaneous fitting of kₒₙ and koff was used for kinetics analysis.

Experiment [3] deals with T1, human PILRA G78 on cells. Put plainly: flow cytometry on HEK293 cells expressing hPILRA G78. For orientation: In flow cytometry, cells or beads pass a laser one at a time.
Target sequence in this assay (Q9UKJ1 20-303 R78G limits assumed): as above
Description: Parental HEK293 cells were labeled with NucBlue Live ReadyProbes Reagent for 30 mins. […] Antibody binding to the cells was detected by FACS and median fluorescence intensity (MFI) was derived from data analysis performed with the FLOJO software (FIGS. 1A-1C).
In experiment [4] the target is T3, human PILRB on cells (human, UniProt Q9UKJ0 20-227).
T3 construct: Expressed on CHO-K1 cells, or together with DAP12 on HEK293 cells (hPILRB-DAP12 OE HEK293); also called hPILRB; hPILRB-DAP12
In words: flow cytometry (MFI), CHO-K1 cells expressing hPILRB.
Description: Antibody binding to the cells was detected by FACS and MFI was derived from data analysis performed with the FLOJO software.

Experiment [5] has as its target T1, human PILRA G78 on cells. Put plainly: flow cytometry on HEK293 PILRA G78 cells with sialidase treatment.
Description: (§2) PILRA 78G or PILRA 78R expressing HEK293 cells were treated with SialEXO (Genovis). […] It is a combination of two sialidases acting on α2-3, α2-6 and α2-8 linkages. […] Cells were then washed twice and incubated and stained with NucBlue Live Stain for 30 mins at RT.
Experiment [6] addresses T1, human PILRA G78 on cells. Put plainly: flow cytometry on HEK293 PILRA G78 cells without sialidase treatment.
Description: as §2
Experiment [7] concerns the target T4, human PILRA R78 on cells (human, UniProt Q9UKJ1 20-303).
T4 construct: also called hPILRA R78; PILRA 78R
Put plainly: flow cytometry on HEK293 PILRA R78 cells with sialidase treatment; with sialidase treatment.
Description: as §2
(§3) Following the same protocol, sialidase treatment was also performed on HEK cells expressing PILRA R78.

Experiment [8] concerns the target T5, human PILRA G78 extracellular domain (recombinant hPILRA ECD) (human, UniProt Q9UKJ1 20-197).
T5 construct: also called hPILRA G78
In words: SPR, Biacore 8K; antibody captured via anti-human Fab, recombinant ECD injected; 1:1 fit.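 Further: CM5 sensor chip, ECD analyte in threefold dilution series at 30 µL/min, 3 min association and 10 min dissociation, kon and koff fitted simultaneously.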

For experiment [9], the target named is T6, cynomolgus monkey PILRA extracellular domain (recombinant) (cynomolgus monkey).
T6 construct: also called cynoPILRA; Cyno PILRA
The description is as above.

The target in experiment [10] is T4, human PILRA R78 on cells. In words: flow cytometry on HEK293 PILRA R78 cells without sialidase treatment; without sialidase treatment.
Description: as §2, §3
The target of experiment [11] is T5, human PILRA G78 extracellular domain …. Put plainly: SPR.
The target of experiment [12] is T7, human PILRA R78 extracellular domain (recombinant) (human, UniProt Q9UKJ1 20-197).
T7 construct: also called hPILRA R78
In words: SPR.
Target sequence in this assay (Q9UKJ1 20-197 limits assumed): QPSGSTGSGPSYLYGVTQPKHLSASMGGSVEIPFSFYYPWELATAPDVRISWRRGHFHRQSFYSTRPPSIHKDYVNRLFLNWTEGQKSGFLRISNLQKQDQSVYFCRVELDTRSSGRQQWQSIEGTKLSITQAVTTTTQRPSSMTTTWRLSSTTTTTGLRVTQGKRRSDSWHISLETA

Experiment [13] addresses T2, human PILRB extracellular domain …. In words: SPR.
Experiment [14] deals with T6, cynomolgus monkey PILRA extracellular …. In words: SPR.
In experiment [15] the target is T1, human PILRA G78 on cells. In words: cell-based or functional assay. The source holds these as a separate data set.
Target sequence in this assay (Q9UKJ1 20-303 R78G limits assumed): as the sequence (Q9UKJ1 20-303 R78G limits assumed) above
The target of experiment [16] is T4, human PILRA R78 on cells. Put plainly: cell-based or functional assay.
Experiment [17] has as its target T1, human PILRA G78 on cells. In words: flow cytometry on HEK293 cells expressing hPILRA G78. The source holds these as a separate data set.
Target sequence in this assay (Q9UKJ1 20-303 R78G limits assumed): as above
Experiment [18] has as its target T5, human PILRA G78 extracellular domain …. In words: SPR, Biacore 8K; hPILRA ECD; antibody with wild-type Fc.
Description: as §1
Characterization for binding affinities of the humanized antibodies to hPILRA ECD were measured by SPR using a Biacore 8K instrument (Table 7).
Experiment [19] addresses T1, human PILRA G78 on cells. Put plainly: flow cytometry on PILRA G78 expressing CHO-K1 cells (FIG. 1H).
Target sequence in this assay (Q9UKJ1 20-303 R78G limits assumed): as above
Description: (§4) PILRA G78 or R78 overexpressing HEK293 cells were stained with NucBlue Live cell stain for 30 mins at RT. […] Cell lines were run in duplicate to account for intra-variability, for a total of N=3. The same protocol was used for CHO-K1 cells expressing hPILRA G78.
The target in experiment [20] is T1, human PILRA G78 on cells. In words: flow cytometry on PILRA G78 expressing HEK293 cells (FIG. 1D); HEK293 cells expressing PILRA G78.
Description: as §4
The target in experiment [21] is T4, human PILRA R78 on cells. In words: flow cytometry on PILRA R78 expressing HEK293 cells (FIG. 1F); HEK293 cells expressing PILRA R78.
Description: as §4
Experiment [22] addresses T5, human PILRA G78 extracellular domain …. In words: SPR. The source holds these as a separate data set.
The target in experiment [23] is T7, human PILRA R78 extracellular domain …. Put plainly: SPR. This is another data set of the same source.
Target sequence in this assay (Q9UKJ1 20-197 limits assumed): as the sequence (Q9UKJ1 20-197 limits assumed) above
The target in experiment [24] is T2, human PILRB extracellular domain …. In words: SPR. The source holds these as a separate data set.
The target of experiment [25] is T6, cynomolgus monkey PILRA extracellular …. In words: SPR. The source holds these as a separate data set.
Experiment [26] has as its target T1, human PILRA G78 on cells. Put plainly: cell binding, HEK293 cells expressing hPILRA G78; antibody with modified Fc.
Target sequence in this assay (Q9UKJ1 20-303 R78G limits assumed): as the sequence (Q9UKJ1 20-303 R78G limits assumed) above
Experiment [27] concerns the target T4, human PILRA R78 on cells. In words: cell binding, HEK293 cells expressing hPILRA R78; antibody with modified Fc.
In experiment [28] the target is T6, cynomolgus monkey PILRA extracellular …. Put plainly: SPR, Biacore 8K, recombinant ECD.
Description: as §1
Experiment [29] addresses T3, human PILRB on cells. Put plainly: flow cytometry, CHO cells expressing hPILRB, MFI as fold over isotype control.
The target in experiment [30] is T8, cynomolgus monkey PILRA on cells (cynomolgus monkey).
T8 construct: Expressed on CHO-K1 cells; also called cynoPILRA; cyno PILRA
Put plainly: flow cytometry, CHO cells expressing cynoPILRA, MFI as fold over isotype control.

The target of experiment [31] is T7, human PILRA R78 extracellular domain …. Put plainly: SPR, Biacore 8K; antibody captured via anti-human Fab, recombinant ECD injected; 1:1 fit.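 Further: CM5 sensor chip, ECD analyte in threefold dilution series at 30 µL/min, 3 min association and 10 min dissociation, kon and koff fitted simultaneously.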
Experiment [32] deals with T2, human PILRB extracellular domain …. Described as above.

Where a chain is given by its changes, count along the chain named. Where two headings read alike, the source gives them in different places.

T3 sequence (Q9UKJ0 20-227 limits assumed): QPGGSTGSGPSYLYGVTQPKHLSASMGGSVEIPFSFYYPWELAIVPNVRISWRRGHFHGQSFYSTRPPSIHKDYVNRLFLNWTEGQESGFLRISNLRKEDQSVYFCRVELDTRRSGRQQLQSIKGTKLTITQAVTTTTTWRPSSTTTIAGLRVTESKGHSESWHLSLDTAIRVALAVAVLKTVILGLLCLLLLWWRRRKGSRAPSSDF
T6 sequence (chain, as listed by the source limits assumed): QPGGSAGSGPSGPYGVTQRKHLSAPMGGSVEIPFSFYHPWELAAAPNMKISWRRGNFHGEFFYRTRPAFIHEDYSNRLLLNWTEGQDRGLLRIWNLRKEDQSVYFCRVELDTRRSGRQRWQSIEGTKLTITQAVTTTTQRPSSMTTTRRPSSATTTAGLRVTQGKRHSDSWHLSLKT
T2 sequence (Q9UKJ0 20-191 limits assumed): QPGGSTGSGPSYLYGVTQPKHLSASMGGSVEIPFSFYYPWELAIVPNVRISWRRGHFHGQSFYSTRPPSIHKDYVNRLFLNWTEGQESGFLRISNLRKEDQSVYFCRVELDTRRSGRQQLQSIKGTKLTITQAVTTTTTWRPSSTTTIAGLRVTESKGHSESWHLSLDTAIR
T8 sequence (chain, as listed by the source limits assumed): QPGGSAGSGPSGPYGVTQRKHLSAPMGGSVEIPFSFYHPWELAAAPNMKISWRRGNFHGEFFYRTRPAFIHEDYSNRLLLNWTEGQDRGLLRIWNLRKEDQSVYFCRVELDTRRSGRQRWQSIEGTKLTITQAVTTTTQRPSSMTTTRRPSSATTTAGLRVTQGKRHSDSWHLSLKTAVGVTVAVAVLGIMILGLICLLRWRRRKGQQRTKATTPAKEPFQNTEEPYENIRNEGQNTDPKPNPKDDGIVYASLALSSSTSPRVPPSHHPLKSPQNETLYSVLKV
T4 sequence (Q9UKJ1 20-303 limits assumed): as the sequence (Q9UKJ1 20-303 R78G limits assumed) above, with G59R counted along it
T5 sequence (Q9UKJ1 20-197 R78G limits assumed): as the sequence (Q9UKJ1 20-197 limits assumed) above, with R59G counted along it

B1: Anti-PILRA antibody clone 1 (antibody, V domains shown)
VH: EVQLVESGGGLVQPGRSLRLSCAVSGFTFDDYAMHWVRQAPGKGLEWVSGFSWNSGSIGYPDSVKGRFTISRDNAKNSLYLQMNSLRAEDTAFYYCAKDKSISAAGRFDYWGQGTLVTVSS
VL: DIQMTQSPSSLSASVGDRVTITCQASRRINNYLNWYQQKPGKAPKLLIYDASNLETGVPSRFTGSGSGTDFTLTISSLQPEDIATYYCQQYDNLPLTFGGGTKIKIK
The term EC50 denotes the concentration giving half of the maximal effect. The term Kd denotes the free concentration of one partner at which half of the binding sites on the other are occupied at equilibrium, for simple one-to-one binding. For B1, the “pSTAT3 Y705 induction, EC50 (nM)” value with human PILRA G78 on cells [1] is 5.66 nM. The “pSTAT3 Y705 induction, Fold Over Background” value in the experiment with human PILRA G78 on cells [1] was found to be 16.2 fold. Further, the binding result in experiment [2] is on record as “no binding”; with human PILRB on cells [4], “no binding (tested: 100 nM)”. Moreover, the concentration for a half-maximal effect (EC50) was 13.8 nM with human PILRA G78 on cells [3]; 1.8 nM with human PILRA G78 on cells [5]; 6.8 nM with human PILRA G78 on cells [6]; 5.6 nM in the experiment with human PILRA R78 on cells [7]; 14 nM with human PILRA R78 on cells [10]. For the same molecule, the dissociation constant Kd amounted to 2.3 nM in experiment [8] and 0.91 nM in [9].

B2: Anti-PILRA antibody clone 12 (antibody, V domains shown)
VH: EVQLVQSGAEVKKPGASVKVSCKASGYTFTEYYMYWVRQAPGQGLELIGRIDPEDGGTDYIEKFKNRVTITADTSTSTAYLELSSLRSEDTAVYYCATTIRGTVFAFWGQGTLVTVSS
VL: DIQMTQSPSSLSASVGDRVTITCRASEDIFNGLAWYQQKPGKSPKLLIYNAKTLHTGVPSRFSGSGSGSDYTLTISSLQPEDFATYFCQQYYDYPLTFGQGTKVEIK
notes: Humanized; also called Ab.12
For the molecule B2, the equilibrium dissociation constant (Kd) in experiment [11] stood at 1.2 nM; in experiment [12], 17 nM; in experiment [13] it was 263 nM; in experiment [14], 1.8 nM; in experiment [18], 1.58 nM. In addition, the “pSTAT3 S727 induction, EC50 (nM)” value was determined as 16 nM in the experiment with human PILRA G78 on cells [15] and 7.41 nM with human PILRA R78 on cells [16]. The “pSTAT3 S727 induction, Fold Over Background” value with human PILRA G78 on cells [15] was found to be 31.6 fold; with human PILRA R78 on cells [16] it was 21.4 fold. Moreover, the “pSTAT3 Y705 induction, EC50 (nM)” value with human PILRA G78 on cells [15] was 11.7 nM; in the experiment with human PILRA R78 on cells [16], 4.53 nM. In addition, the “pSTAT3 Y705 induction, Fold Over Background” value with human PILRA G78 on cells [15] turned out to be 31.3 fold; with human PILRA R78 on cells [16], 34.6 fold. The EC50 stood at 12 nM with human PILRA G78 on cells [17], 10.8 nM with human PILRA G78 on cells [19], 12 nM with human PILRA G78 on cells [20] and 2.7 nM with human PILRA R78 on cells [21].

B3: Anti-PILRA antibody clone 39 (antibody, V domains shown)
VH: B2 VH with I70L
VL: B2 VL
notes: Humanized
For B3, the Kd in experiment [22] is 0.2 to 0.4 nM; in [23], 6.2 to 6.3 nM; in [24], 38 to 56 nM; in experiment [25], 0.4 nM. The concentration giving a half-maximal response (EC50) is 7 to 8 nM in the experiment with human PILRA G78 on cells [26] and 1 to 2 nM with human PILRA R78 on cells [27].

B4: Anti-PILRA antibody clone 38 (antibody, V domains shown)
VH: B2 VH with I61V, I70A, T98S, A106V, F107Y
VL: B2 VL with A25P, F30Y, S43A, K52N, T53S, S69T
notes: Humanized
B4: the Kd in [22] is 0.3 to 0.7 nM; in experiment [23], 11 nM; in experiment [24], 35 to 53 nM; in experiment [25], 0.2 to 0.3 nM. In addition, the EC50 was 13 to 14 nM with human PILRA G78 on cells [26] and 2 to 4 nM with human PILRA R78 on cells [27].

B5: Reference Antibody #1 (antibody, human IgG1, kappa, L234A L235A, V domains shown)
VH: QVTLQESGPGILQPSQTLSLTCSFSGFSLSTFGMGVGWIRQPSGKGLEWLAHIWWDDDKYYNPALKSRLTISKDTSKNQVFLKIASVDTADIATYYCARVEDYGNPFDYWGQGTTLTVSS
VL: DIQMNQSPSSLSASLGDTITITCHASQNIHVWLNWYQQKPGNIPKLLIYKASNLHTGVPSRFSGSGSGTGFTVTISSLQPEDIATYYCQQGQSYPLTFGAGTKLELKR
Take B5: the binding result is given as “no binding” in experiment [2], “no binding” in experiment [28], “no binding (tested: 100 nM)” with human PILRB on cells [29] and “no binding (tested: 100 nM)” in experiment [30].

B6: Reference Antibody #2 (antibody, human IgG1, kappa, L234A L235A, V domains shown)
VH: QVILKESGPGILQSSQTLSLTCSFSGFSLSTFGMGVGWIRQPSGKGLESLAHIWWDDDKFYNPALKSRLTISKDTSKSQVFLKIANVDTADIATYYCTRIEDYGSYFAYWGQGTTLTVSS
VL: B5 VL with I2V, T18P, K39R, K45R, V73L, L96Y, A100G, L106I
In the case of B6, the binding result in experiment [2] is listed as “no binding”; in [28], “no binding”; with human PILRB on cells [29], “no binding (tested: 100 nM)”; in experiment [30], “no binding (tested: 100 nM)”.

B7: Reference Antibody #4 (antibody, human IgG1, kappa, L234A L235A, V domains shown)
VH: B5 VH with Q5K, S30T, T75I, S86N, I92T, V100I
VL: B5 VL with N34S, V73L
For B7, the binding result is on record as “no binding” in experiment [2], “no binding” in [28], “no binding (tested: 100 nM)” in the experiment with human PILRB on cells [29] and “no binding (tested: 100 nM)” in experiment [30].

B8: Anti-PILRA antibody clone 6 (antibody, V domains shown)
VH: EVQLQQSGPELQRPGASVKLSCKASGYTFTEYYMYWVKQRPKQGLELIGRIDPEDGGTDYIEKFKNKATLTADTSSNTAYMQLSSLTSEDTATYFCATTIRGTVFAFWGQGTLVTVSS
VL: DIQMTQSPASLSASLGETVTIECRASEDIFNGLAWYQQKPGKSPHLLIYNAKTLHTGVPSRFSGSGSGSQYSLKINSLQSEDVASYFCQQYYDYPLTFGSGTKLEIK
notes: the printed lines of the VL are out of order there
B8: the “pSTAT3 S727 induction, EC50 (nM)” value came out at 16 nM in the experiment with human PILRA G78 on cells [15] and 7.13 nM in the experiment with human PILRA R78 on cells [16]. For the same molecule, the figures for the “pSTAT3 Y705 induction, EC50 (nM)” value with human PILRA G78 on cells [15] and in the experiment with human PILRA R78 on cells [16] were 12.1 nM and 3.18 nM, respectively. In addition, the concentration for a half-maximal effect (EC50) with human PILRA G78 on cells [3] is 9.3 nM; in the experiment with human PILRA G78 on cells [19], 7.6 nM; with human PILRA G78 on cells [5], 4.8 nM; in the experiment with human PILRA G78 on cells [6], 13 nM; with human PILRA R78 on cells [7] it was 0.3 nM; with human PILRA R78 on cells [21], 2 nM. Further, in the experiment with human PILRA R78 on cells [10], the EC50 came to 0.7 nM. For the same molecule, the dissociation constant (Kd) in experiment [8] was found to be 0.72 nM; in [31] it was 9.6 nM; in [32], 90 nM.

Values taken from patent US20260109763A1 (DENALI THERAPEUTICS, published 2026).
